These results are taken from publication PMC6768434.

Usually Km stands for the concentration of substrate that gives half-maximal velocity. Broadly, the kcat is the maximal rate divided by the concentration of active sites. The term kcat/Km denotes the second-order rate constant that governs catalysis at low substrate concentration.

Substrate in this data set: CC(NCCCC[C@H](N)C(=O)O)C(=O)O
Kind of data set: purified protein. Particulars: 50 mM Tris pH 8.0, 5 μM FAD, 25 μM enzyme, 37 °C, CEL 1-13 mM.

B1: C-MnmC (Escherichia coli K-12) (protein)
chain: PCSAPWFNRTGSSKREAAIIGGGIASALLSLALLRRGWQVTLYCADEAPALGASGNRQGALYPLLSKHDEALNRFFSNAFTFARRFYDQLPVKFDHDWCGVTQLGWDEKSQHKIAQMLSMDLPAELAVAVEANAVEQITGVATNCSGITYPQGGWLCPAELTRNVLELAQQQGLQIYYQYQLQNLSRKDDCWLLNFAGDQQATHSVVVLANGHQISRFSQTSTLPVYSVAGQVSHIPTTPELAELKQVLCYDGYLTPQNPANQHHCIGASYHRGSEDTAYSEDDQQQNRQRLIDCFPQAQWAKEVDVSDKEARCGVRCATRDHLPMVGNVPDYEATLVEYASLAEQKDEAVSAPVFDDLFMFAALGSRGLCSAPLCAEILAAQMSDEPIPMDASTLAALNPNRLWVRKLLKGKAVKAG
Take B1: the Km worked out at 4.3 ± 0.6 mM, the catalytic constant (kcat) was 0.003 ± 0.00015 s⁻¹ and the kcat/Km worked out at 0.7 ± 0.1 M⁻¹ s⁻¹.

B2: MnmC (Escherichia coli K-12) (protein)
chain: MKHYSIQPANLEFNAEGTPVSRDFDDVYFSNDNGLEETRYVFLGGNQLEVRFPEHPHPLFVVAESGFGTGLNFLTLWQAFDQFREAHPQAQLQRLHFISFEKFPLTRADLALAHQHWPELAPWAEQLQAQWPMPLPGCHRLLLDEGRVTLDLWFGDINELTSQLDDSLNQKVDAWFLDGFAPAKNPDMWTQNLFNAMARLARPGGTLATFTSAGFVRRGLQDAGFTMQKRKGFGRKREMLCGVMEQTLPLPCSAPWFNRTGSSKREAAIIGGGIASALLSLALLRRGWQVTLYCADEAPALGASGNRQGALYPLLSKHDEALNRFFSNAFTFARRFYDQLPVKFDHDWCGVTQLGWDEKSQHKIAQMLSMDLPAELAVAVEANAVEQITGVATNCSGITYPQGGWLCPAELTRNVLELAQQQGLQIYYQYQLQNLSRKDDCWLLNFAGDQQATHSVVVLANGHQISRFSQTSTLPVYSVAGQVSHIPTTPELAELKQVLCYDGYLTPQNPANQHHCIGASYHRGSEDTAYSEDDQQQNRQRLIDCFPQAQWAKEVDVSDKEARCGVRCATRDHLPMVGNVPDYEATLVEYASLAEQKDEAVSAPVFDDLFMFAALGSRGLCSAPLCAEILAAQMSDEPIPMDASTLAALNPNRLWVRKLLKGKAVKAG
Consider B2, for which the Km came to 5.2 ± 1.3 mM, the kcat stood at 0.000667 ± 6.67e-05 s⁻¹ and the specificity constant (kcat/Km) was 0.133 ± 0.0167 M⁻¹ s⁻¹.
